Article PMC11964753 (Molecules and Cells, 2025)
Where “and” joins values, the source holds several entries; their conditions need not be identical. Identical values can stand only once.

Target: the molecule itself
Test: cryo-EM structure

B1: mouse bestrophin 1 with a C-terminal tandem tag of BRIL and 3X Flag (mBEST1-BRIL-3xFLAG) (natural protein, UniProt O88870 1-551, looked up)
chain: MTITYTNKVANARLGSFSSLLLCWRGSIYKLLYGEFLVFIFLYYSIRGLYRMVLSSDQQLLFEKLALYCDSYIQLIPISFVLGFYVTLVVSRWWSQYENLPWPDRLMIQVSSFVEGKDEEGRLLRRTLIRYAILGQVLILRSISTSVYKRFPTLHHLVLAGFMTHGEHKQLQKLGLPHNTFWVPWVWFANLSMKAYLGGRIRDTVLLQSLMNEVCTLRTQCGQLYAYDWISIPLVYTQVVTVAVYSFFLACLIGRQFLNPNKDYPGHEMDLVVPVFTILQFLFYMGWLKVAEQLINPFGEDDDDFETNWIIDRNLQVSLLSVDGMHQNLPPMERDMYWNEAAPQPPYTAASARSRRHSFMGSTFNISLKKEDLELWSKEEADTDKKESGYSSTIGCFLGLQPKNYHLPLKDLKTKLLCSKNPLLEGQCKDANQKNQKDVWKFKGLDFLKCVPRFKRRGSHCGPQAPSSHPTEQSAPSSSDTGDGPSTDYQEICHMKKKTVEFNLNIPESPTEHLQQRRLDQMSTNIQALMKEHAESYPYRDEAGTKPVLYE
stoichiometry N: 5 and 10
